Results on 1 molecule are retold here after patent US20050227302A1, “Induction of apoptosis via ARTS-IAP complexes” (priority 2004, published 2005).

For assay [1], the target named is T1, XIAP (Homo sapiens, UniProt P98170).
T1 construct: made in house; host or cells: bacteria (pGEX-XIAP plasmid obtained from Dr. Colin S. Duckett)
As to the kind of experiment: GST pull-down assay of ARTS and XIAP. The format is binding. The source says:
For the glutathione-S-transferase (GST)-pull down assays, ARTS was subcloned into the pGEX 4T™ (Pharmacia Biotech) construct; GST-ARTS fusion protein was generated by Polymerase Chain Reaction (PCR) using the following primers: • BamHI-5′-[…]-3′ (SEQ ID No: 4) and • EcoRI-5′ […]-3′ (SEQ ID No: 5) and cloned into BamHI and EcoRI sites in pGEX 4T. Preparation of Beads
For in vitro binding studies, recombinant GST-ARTS or GST-XIAP fusion proteins were purified from bacteria. After sonication, 0.1% Triton X-100 and protease inhibitors (Mini-Complete™, Roche) were added to the bacterial extract followed by 10,000 rotations per minute (RPM) centrifugation. Supernatants of bacterial extracts were collected and incubated in the presence of glutathione-Sepharose 4B beads (Amersham Biosciences) for 30 minute at 4° C. The beads were washed three times.
Cells were lysed in RIPA buffer (150 mM NaCl, 50 mM Tris-HCl (pH 8), 1% NP-40, 0.1% SDS, 0.5% deoxycholate acid containing protease inhibitors (mini Complete, Roche)). Samples were divided into two tubes; one was rotated for 4 h at 4° C. with GST-ARTS fusion protein coupled with the glutathione beads, or GST-XIAP fusion protein. The second tube was incubated with glutathione beads alone (negative control). Samples were centrifuged at 4000-RPM at 4° C. for 4 minute and washed five times in lysis buffer, then boiled in sample buffer for 5 minutes to elute bound proteins Proteins were separated on 12.5% SDS-PAGE gel followed by Western blot analysis using monoclonal anti-ARTS antibody (Sigma), monoclonal anti-XIAP antibody (BD Transduction Laboratories) or monoclonal anti-myc antibody (Clontech).

For assay [2], the system named is XIAP. As to the kind of experiment: Co-immunoprecipitation of ARTS-XIAP complexes in COS-7 cells. To be noted: un-transfected COS-7 cells, apoptosis induced with staurosporine, IP anti-ARTS. In kind it is cell-based, African Green Monkey. Here is the method:
(§1) Protein extracts were prepared with lysis buffer (150 mM NaCl, 50 mM Tris-HCl (pH 8), 1% NP-40, 0.5% deoxycholate acid) with protease inhibitors. Lysates containing equal amounts of total protein were pre-cleared overnight with 1 mg mouse IgG (Sigma) coupled with protein A/G-Sepharose mix (Amersham Biosciences) and the beads centrifuged. Supernatants were immuno-precipitated using 5 μl of anti-ARTS antibody for 4 h, anti-XIAP antibody, rabbit anti-myc antibody, or mouse IgG (negative control). Protein A/G Sepharose beads were added for 1 hour and washed four times with PBS. Antibodies against XIAP (as above), Myc (Santa Cruz), or anti-ARTS (NT) antibodies directed against the common N′ terminus of ARTS and H5 (ProSci Incorporated) were used for Western blot.

The subject of assay [3] is XIAP. As to the kind of experiment: XIAP protein levels by Western blot in COS-7 cells. The format is cell-based, African Green Monkey. As to the method:
as §1
Stably transfected COS-7 pE-ARTS cells were generated using the pEF1-IRES vector (Hobbs S et al, Biochem Biophys Res Commun 252: 368-372, 1998). The construct contains an EF-1 promoter followed by a multi cloning site, an EMC (Encephalomyocarditis virus) internal ribosome entry sites (IRES), and a puromycin resistance gene. AU5-tagged ARTS was inserted into the XhoI site downstream of the EF-1 promoter. The construct was stably transfected into COS-7 cells. The cells were maintained in medium containing 4 μg/ml puromycin.
Cells were treated for 2 hours with […] of the proteasome inhibitor (MG132, Calbiochem) prior to induction of apoptotis.

For assay [4], the target named is T1, XIAP. Description: In vitro binding assay, recombinant ARTS with GST-XIAP. The note with it: GST-XIAP and purified recombinant ARTS protein, GST alone as negative control. As to the method:
Recombinant ARTS protein was generated with the TNT-Quick Coupled Transcription/Translation System™ (Promega) and incubated overnight at 4° C. with either recombinant GST-XIAP bound to glutathione beads, or with GST alone bound to glutathione beads, followed by Western blot with anti-ARTS or anti-GST antibody (Gibco).

Another assay deals with K562 cells. Description: Caspase 3 activity assay in ARTS-transfected K562 cells. In kind it is cell-based. Here is the method:
K562 and HL-60 cells were grown in RPMI 1640 medium. A549, COS-7 cells were grown in Dulbecco's modified Eagle medium (DMEM) with 4.5 grams/liter (g/L) D-glucose. All cells were grown at 37° C. in a 5% CO2 atmosphere. All media were supplemented with 10% fetal calf serum (FCS), penicillin (100 U/ml), streptomycin (100 micrograms (μg)/ml) and […] millimolar [mM]) (Biological Industries, Israel). pEF1-AU5 and pEF1-AU5-ARTS constructs were used for all ARTS transient transfection experiments. An AU5 tag was attached to the N' terminus of ARTS as described in ([…] et al, Nat Cell Biol 2: 915-921, 2000). The […] construct was generated by replacing three amino acids ([…]) at the GTP binding site, using site-directed mutagenesis (QuickChangeTM, Stratagene) with the primer: [NT] No: 1). COS-7, K562 and HL-60 cells were transiently transfected using electroporation (EasyjectTM plus-Equibio). A549 cells were transiently transfected using lipofectaminTM (Invitrogen) according to the manufacturer's protocol. The following apoptotic agents were used: TGF-beta (10 ng/ml) for 24 hours in medium containing 1% FCS; […] etoposide for 2 or 16 hours (Sigma); staurosporine (STS) ([…]) for 0-3 hours (Sigma); and arabinoside-c (ara-C, cytosar) (Pharmacia) at […] for 4 hours. In the case of transiently transfected cells, agents were added forty hours after transfections. […]

T1 sequence (P98170 whole entry): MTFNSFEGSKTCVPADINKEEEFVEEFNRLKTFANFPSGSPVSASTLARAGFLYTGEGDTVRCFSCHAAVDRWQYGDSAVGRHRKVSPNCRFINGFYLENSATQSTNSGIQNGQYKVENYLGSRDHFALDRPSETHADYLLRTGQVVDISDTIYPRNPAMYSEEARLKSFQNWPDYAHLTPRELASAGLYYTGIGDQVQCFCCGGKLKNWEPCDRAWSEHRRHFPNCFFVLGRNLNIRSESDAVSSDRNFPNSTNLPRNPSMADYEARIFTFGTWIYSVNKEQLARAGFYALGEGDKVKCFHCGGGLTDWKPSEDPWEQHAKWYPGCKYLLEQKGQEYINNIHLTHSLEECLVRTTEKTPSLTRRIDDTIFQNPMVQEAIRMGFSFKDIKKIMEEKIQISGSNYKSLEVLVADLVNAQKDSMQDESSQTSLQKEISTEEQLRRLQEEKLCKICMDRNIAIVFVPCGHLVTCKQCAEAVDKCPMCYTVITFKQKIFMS

B1: AU5-ARTS (other)
chain: MIKRFLEDTTDDGELSKFVKDFSGNASCHPPEAKTWASRPQVPEPRPQAPDLYDDDLEFRPPSRPQSSDNQQYFCAPAPLSPSARPRSPWGKLDPYDSSEDDKEYVGFATLPNQVHRKSVKKGFDFTLMVAGESGLGKSTLVNSLFLTDLYRDRKLLGAEERIMQTVEITKHAVDIEEKGVRLRLTIVDTPGFGDAVNNTECWKPVAEYIDQQFEQYFRDESGLNRKNIQDNRVHCCLYFISPFGHGYGPSLRLLAPPGAVKGTGQEHQGQGCH
notes: Expressed in transfected COS-7 cells and used as lysate or stained in cells; also called pEF1-AU5-ARTS; AU5-tagged ARTS; not shown: AU5 tag attached to the N' terminus of ARTS
For the molecule B1, the “binding to GST-XIAP” value with XIAP [1] (lysates of COS-7 cells transfected with AU5-tagged construct, Western blot anti-AU5) is given as “bound to XIAP”. For the same molecule, in the assay with XIAP [1] (lysates of COS-7 cells transfected with pcDNA3 mycXIAP, Western blot anti-XIAP and anti-Myc), the “binding of XIAP to GST-ARTS” value is reported as “XIAP bound to ARTS”. For the same molecule, in the assay on XIAP [2], the “interaction of endogenous ARTS and XIAP” value is on record as “interact with each other”. In the assay on XIAP [3] (COS-7 cells transiently transfected with pcDNA3-myc-XIAP and AU5-ARTS versus XIAP alone), the “amount of XIAP” value is “significantly decreased”. Further, the “levels of XIAP” value in the assay with XIAP [3] (COS-7 pE-ARTS cells stably expressing high levels of ARTS) was “significantly reduced levels of XIAP”. Moreover, the XIAP protein levels entry with XIAP [3] (transiently transfected COS-7 cells treated with 1 mM staurosporin (STS) for 0, 2 or 5 hours) is “reduced XIAP protein levels”. The “ARTS-XIAP binding, direct or not” value in the assay with XIAP [4] is “direct”. Moreover, the caspase-3 activity entry with K562 cells (expression of ARTS in the absence of pro-apoptotic stimuli, K562 cells) was “little or no effect”; with K562 cells (over-expression of ARTS, K562 cells treated with ara-C), “increased caspase-3 activity”.
